Results as given in IntAct's records for PubMed 9171338.

B1: Clathrin heavy chain (Saccharomyces cerevisiae), P22137 (parent)
chain: MSDLPIEFTELVDLMSLGISPQFLDFRSTTFESDHFVTVRETKDGTNSVAIVDLAKGNEVTRKNMGGDSAIMHPSQMVISVRANGTIVQIFNLETKSKLKSFTLDEPVIFWRWLSETTLGFVTARSILTSNVFDGNVNAKPQLLTLRHANLNNTQIINFVANKNLDWFAVVGILQENGRIAGRIQLFSKQRNISQAIDGHVAIFTNILLEGNGSTPVQVFVTGNRNATTGAGELRIIEIDHDASLPSQYQKETTDIFFPPDATNDFPIAVQVSEKYGIIYLLTKYGFIHLYELETGTNLFVNRITAESVFTAAPYNHENGIACINKKGQVLAVEISTSQIVPYILNKLSNVALALIVATRGGLPGADDLFQKQFESLLLQNDYQNAAKVAASSTSLRNQNTINRLKNIQAPPGAISPILLYFSTLLDKGKLNKEETIELARPVLQQDRKQLFEKWLKEDKLECSEELGDIVKPFDTTLALACYLRAGAHAKVISCLAELQQFEKIIPYCQKVGYQPNFLVLISSLIRSSPDRASEFAVSLLQNPETASQIDIEKIADLFFSQNHIQQGTSLLLDALKGDTPDQGHLQTRVLEVNLLHAPQVADAILGNNIFSHYDKPTIASLSEKAGLYQRALENYTDIKDIKRCVVHTNALPIDWLVGYFGKLNVEQSLACLKALMDNNIQANIQTVVQVATKFSDLIGPSTLIKLFEDYNATEGLYYYLASLVNLTEDKDVVYKYIEAAAKMKQYREIERIVKDNNVYDPERVKNFLKDANLEDQLPLVIVCDRFDFVHEMILYLYKSQNLKFIETYVQQVNPSKTAQVVGALLDMDCDEAFIQSLLQSVLGQVPINELTTEVEKRNRLKILLPFLEQSLSQGIQDQAVYNALAKIYIDSNNSPEKFLKENDQYDTLDVGHYCEKRDPYLAYIAYEKGQNDDDLIRITNENSMYKYQARYLLERSDLDLWNKVLNQENIHRRQLIDSVISVGIPELTDPEPVSLTVQAFMTNGLKLELIELLEKIILEPSPFNENVALQGLLLLSAIKYEPTKVSSYIEKLDNYDADEIAPLCIEHDLKEEAFEIYDKHEMYGKALKVLIEDIMSLDRAASYADKINTPELWSQIGTAQLDGLRIPDAIESYIKAEDPSNYENVIDIAEQAGKYEELIPFLLMARKTLKEPKIDGALILAYAELNKIHEIENLLAGSNVANLDHVGDKLFENKEYKAARLCYSAVSNYSKLASTLVYLGDYQAAVDTARKASNIKVWKLVNDACIEKKEFKLAQICGLNLIVHAEELDELVERYESNGYFEELISLFEAGLGLERAHMGMFTELAILYSKYEPDKTFEHLKLFWSRINIPKVIRAVEQAHLWSELVFLYAHYDEWDNAALTLIEKSTKDLDHAYFKEVVVKVSNLEIYYKAINFYVKFHPSLLVDLLTSLTPRLDIPRTVKIFSKSDNLPLIKPFLINVLPKNNSVVNQAYHDLMIEEEDYKALQDAVDSYDKFDQLGLASRLESHKLIFFKKIGALLYRRNKKWAKSLSILKEEKLWKDAIETAAISQDPKVVEALLTYFVETGNREGFVALLYAAYNLVRIEFVLEISWMNSLEDYIKPFEISIKKEQNDSIKKITEELAKKSGSNEEHKDGQPLMLMNSAMNVQPTGF
partner: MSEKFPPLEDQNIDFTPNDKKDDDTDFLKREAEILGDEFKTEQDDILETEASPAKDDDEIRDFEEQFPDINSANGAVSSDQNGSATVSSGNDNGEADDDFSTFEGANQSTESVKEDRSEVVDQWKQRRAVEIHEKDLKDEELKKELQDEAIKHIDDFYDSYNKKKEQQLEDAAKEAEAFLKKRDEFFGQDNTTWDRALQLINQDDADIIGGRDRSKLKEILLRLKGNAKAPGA

Variants of: B1
Settings: with clc1_yeast CLC1, P17891

Effect of a mutation on the interaction, with no effect:
S1331F;S1347F
S1331F;S1347F;P1553L
S1347F;P1553L

Effect of a mutation on the interaction, disrupting interaction strength:
S1331F;S1347F;P1553L;E1590K
E1590K
S1347F;P1553L;E1590K
P1553L;E1590K
S1331F;S1347F;E1590A
S1331F;S1347F;E1590K

Variants of: B1
Settings: with clc1_yeast CLC1, P17891
Remark: another data set of the same source

Effect of a mutation on the interaction, disrupting interaction strength:
E1590A
S1331F;S1347F;E1590A
